Source: patent publication US20080152587A1 (Amgen, published 2008)
Numbering of substitutions follows the chain as printed.

T1: mouse uPAR on the surface of NCTC L929 cells (mouse, UniProt P35456 24-298)
T1 construct: whole, on cells; also called cell surface mouse uPAR
T1 sequence (looked up): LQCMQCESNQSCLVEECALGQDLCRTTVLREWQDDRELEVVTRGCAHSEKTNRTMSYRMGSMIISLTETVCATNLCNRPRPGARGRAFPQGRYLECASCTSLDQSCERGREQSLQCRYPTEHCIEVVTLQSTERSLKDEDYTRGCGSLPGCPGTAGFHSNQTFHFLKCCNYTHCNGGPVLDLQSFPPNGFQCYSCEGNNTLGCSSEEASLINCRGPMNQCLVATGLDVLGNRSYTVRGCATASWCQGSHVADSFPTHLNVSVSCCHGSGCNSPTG

T2: murine uPAR (form not stated) (mouse, UniProt P35456 24-297, limits assumed)
T2 construct: also called mouse uPAR
T2 sequence (looked up): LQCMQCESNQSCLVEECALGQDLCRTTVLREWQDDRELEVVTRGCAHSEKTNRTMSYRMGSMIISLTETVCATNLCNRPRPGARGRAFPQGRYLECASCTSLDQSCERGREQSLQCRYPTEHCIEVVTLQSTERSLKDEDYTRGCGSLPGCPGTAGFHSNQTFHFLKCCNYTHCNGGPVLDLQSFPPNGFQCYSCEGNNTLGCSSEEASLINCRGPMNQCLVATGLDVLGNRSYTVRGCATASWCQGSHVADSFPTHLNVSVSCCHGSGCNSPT

T3: human Ly6e with a myc tag, expressed in HEK293T cells (human, UniProt Q16553 21-101)
T3 construct: whole, on cells; not shown: myc tag fused on the molecule
T3 sequence (looked up): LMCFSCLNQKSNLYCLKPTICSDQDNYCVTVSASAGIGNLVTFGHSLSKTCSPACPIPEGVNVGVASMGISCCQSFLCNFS

B1: anti-uPAR monoclonal antibody 4.12.1 (antibody, V domains shown)
VH: EVQLVESGGGLVQPGGSLRLSCAASGFTFSSYWMSWVRQAPGTGLDWVANINQDGSERYYVDSVKGRFTISRDNAKNSPHLQMNSLRAEDTAVYYCAREGSGGRYGGWYFDLWGRGTLVTVSS
VL: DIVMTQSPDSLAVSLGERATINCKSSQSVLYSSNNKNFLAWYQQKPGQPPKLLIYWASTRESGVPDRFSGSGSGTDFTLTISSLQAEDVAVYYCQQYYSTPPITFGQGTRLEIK
B2: anti-uPAR monoclonal antibody 1.99.1 (antibody, V domains shown)
VH: EVQLVESGGGLIQPGGSLRLSCAASGFTVRSNYMSWVRQAPGKGLEWISVIYTGGSTYYADSVKGRFSISRDNSKNTLYLQMNSLRAEDTAVYYCAREGAVAGFDYWGQGTLVTVSS
VL: EIVMTQSPATLSVSPGERATLSCRASQSISSNLAWYQQKPGQAPRLLIYGASTRATGIPARFSGSGSGTEFTLTISSLQSEDFAVYYCQQYTNWPLTFGGGTKVEIK
B3: anti-uPAR monoclonal antibody 4.19.1 (antibody, V domains shown)
VH: EVQLVESGGGLIQPGGSLRLSCAASGFSVSSNYMNWVRQAPGKGLEWVSVIYTGGSTYYADSVKGRFTISRDNSKNTLYLQMNSLRAEDTAVYYCARDTYLYGMDVWGQGTTVTVSS
VL: B2 VL with R18S, A25T, I29V, A43T, T53A, I58V, T92Y

Key:
[1] = target: T4, cynomolgus monkey uPAR, cell-bound (cynomolgus monkey, UniProt Q9GK78 23-305); assay: FACS, GeoMean; cynomolgus uPAR expressed on 293T cells; antibody concentration not given
T4 construct: whole, on cells; also called cyno-uPAR
T4 sequence (Q9GK78 23-305): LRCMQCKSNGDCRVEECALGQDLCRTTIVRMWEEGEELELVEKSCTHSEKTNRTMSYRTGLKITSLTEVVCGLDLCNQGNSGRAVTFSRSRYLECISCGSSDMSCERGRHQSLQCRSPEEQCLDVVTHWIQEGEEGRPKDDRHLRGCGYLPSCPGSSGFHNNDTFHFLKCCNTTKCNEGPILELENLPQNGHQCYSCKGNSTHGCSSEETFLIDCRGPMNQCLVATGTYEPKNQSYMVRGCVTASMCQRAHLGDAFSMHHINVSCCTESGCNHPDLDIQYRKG

[2] = target: T5, human urokinase-type plasminogen activator receptor (uPAR, CD87), cell-bound (human, UniProt Q03405 23-305); assay: FACS, U937 cells, mAb 5 µg/ml on ice, alexa647 goat anti-human F(ab), not stripped
T5 construct: whole, on cells; On B300.19 or L929 transfectants (full length cDNA), or native on U937 and PC-3 cells
T5 sequence (Q03405 23-305): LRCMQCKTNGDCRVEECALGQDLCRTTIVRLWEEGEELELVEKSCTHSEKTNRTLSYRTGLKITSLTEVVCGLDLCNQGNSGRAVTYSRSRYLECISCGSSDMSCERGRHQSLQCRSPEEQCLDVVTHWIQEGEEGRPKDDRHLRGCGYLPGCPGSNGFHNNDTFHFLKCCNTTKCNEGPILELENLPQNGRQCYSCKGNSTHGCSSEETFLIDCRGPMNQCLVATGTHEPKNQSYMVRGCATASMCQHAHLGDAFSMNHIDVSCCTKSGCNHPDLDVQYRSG
Protocol: A cell suspension containing 100,000 cells was pipetted into each well of a V-bottom plates in duplicate. Two V-bottom plates were prepared, one to be kept at 37° C. during internalization with antibody complex, and the other to be incubated at 4° C. Each of the eight uPAR mAbs was incubated with U937 cells at 5 μg/ml on ice for 15 min. Incubation on ice was necessary to prevent internalization of the primary mAbs. The cells were then washed with cold FACS buffer. Cells were subsequently incubated on ice in 100 μl of 5 μg/ml alexa647-labelled goat anti-humanF(ab) (Invitrogen catalogue number A21249) in cold FACS buffer for 15 min. This allowed the goat FAB bind to the bound uPAR mAbs without permitting any internalization. After a 15 minute incubation on ice, one plate was kept on ice, while the other plate was incubated at 37° C. for 1 hour.
Following the 1 hr incubation with the mAb-FAB complex, the cells were washed twice with cold 5% FACS buffer, and 200 μl of Tris(2-carboxyethyl)phosphine HCl (TCEP) was added to each well as a stripping agent. The plates were both incubated with TCEP on ice for 1 hour, followed by washing and resuspending with FACS buffer. 4 μl of 7-Amino-Actinomycin D (7AAD) was added to each well, followed by 10 min incubation on ice before FACS analysis was conducted.

[3] = target: T5, human urokinase-type plasminogen …; assay: cell-based or functional assay
[4] = target: T1, mouse uPAR on the surface of NCTC L929 …; assay: FACS, NCTC L929 mouse cells
Protocol: (§1) To make the mouse cross-reactivity results conclusive, direct binding of the mAbs to cell-bound mouse uPAR was measured using FACS analysis. The mouse cell line derived from the connective tissue, NCTC L929, was employed for FACS analysis. The harvested cells were resuspended at 50,000 cells/well using FACS buffer into a V-bottom plate which was put on ice. […] After washing, Cy5-labeled goat anti-human IgG Fc at 5 μg/ml and 7AAD at 5 μg/ml was added. The mixtures were incubated for 15 min on ice, washed and resuspended in cold FACS buffer for FACS analysis.

[5] = target: T6, soluble recombinant human uPAR/His6 (R&D Systems, Cat. # 807-UK-100) (human, UniProt Q03405 23-303); assay: low resolution Biacore
T6 construct: range 1-303; Bought protein; also called soluble uPAR; hu-uPAR
T6 sequence (Q03405 other isoform, or with tags, fused parts or gaps limits assumed, form in doubt): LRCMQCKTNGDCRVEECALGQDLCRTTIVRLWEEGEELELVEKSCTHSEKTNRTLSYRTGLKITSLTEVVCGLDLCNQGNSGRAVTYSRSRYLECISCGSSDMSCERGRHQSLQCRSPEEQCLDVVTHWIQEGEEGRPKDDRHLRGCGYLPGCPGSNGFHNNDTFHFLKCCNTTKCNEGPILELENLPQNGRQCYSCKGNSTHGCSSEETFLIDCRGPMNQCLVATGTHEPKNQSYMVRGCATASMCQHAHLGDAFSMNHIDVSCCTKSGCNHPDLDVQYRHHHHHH
Protocol: (§2) A high-density goat anti-human antibody surface over a CM5 Biacore™ chip was prepared using routine amine coupling. […] Each mAb was captured on a separate flow cell using a 30-second contact time at 10 μL/min followed by a 5-minute wash at a 100 μL/min flow rate for stabilization of the mAb baseline. […] All antigen samples were prepared in the running buffer.

[6] = target: T6, soluble recombinant human uPAR/His6 …; assay: limited antigen ELISA, uPAR coat 80 ng/mL, sample 1:25
Protocol: (§3) ELISA plates were coated with a lower amount ofuPAR in comparison with the High Antigen Quantitation assay described below (320, 160, 80, 40 and 20 ng/mL). Samples containing one concentration of antibody (Ab) (1:25 dilution) were incubated overnight to allow Ab binding to approach equilibrium.

[7] = target: T5, human urokinase-type plasminogen …; assay: FACS competition, FITC-tc-uPA on L929 cells expressing human uPAR, supernatant 1:2
Description: (§4) Briefly, murine fibroblast L929 cells (ATCC) were transfected to express human uPAR.

[8] = target: T5, human urokinase-type plasminogen …; assay: FACS, B300.19 cells expressing human uPAR, anti-human gamma Cy5
[9] = target: T1, mouse uPAR on the surface of NCTC L929 …; assay: FACS, NCTC L929 mouse cells, mAb 6.25 µg/ml
Protocol: as §1

[10] = target: T6, soluble recombinant human uPAR/His6 …; assay: low resolution Biacore, mAb captured by goat anti-human, hu-uPAR 312 nM;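 note: surface plasmon resonance on a CM5 chip with goat anti-human antibody surface made by amine coupling, each mAb from supernatant captured per flow cell, kinetics fitted including mass transport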
Protocol: as §2
A mass transport coefficient was used in fitting the data.

[11] = target: T5, human urokinase-type plasminogen …; assay: FACS competition with FITC-tc-uPA, line material
Description: as §4

[12] = target: T6, soluble recombinant human uPAR/His6 …; assay: limited antigen ELISA, uPAR coat 20 ng/mL, sample 1:25
Protocol: as §3

[13] = target: T5, human urokinase-type plasminogen …; assay: cell-based or functional assay; remark: listed apart in the source
[14] = target: T2, murine uPAR (form not stated); assay: summary column Murine X-reactivity
[15] = target: T3, human Ly6e with a myc tag, expressed in …; assay: FACS, HEK293T cells expressing Ly6e, supernatant 1:2
Protocol: The reactivity of the antibodies to the HEK293T transfected to express Ly6e was determined by FACS analysis, using 1:2 hybridoma supernatants, and probed with goat anti-human γ chain conjugated with Cy5 (2.5 mg/ml, Jackson Immune Research). Binding of an anti-myc antibody (10 μg/ml, Invitrogen) to the transfectants served as a positive control, and binding of this antibody to the (Ly6e negative) parental cells served as the negative control.

[16] = target: T5, human urokinase-type plasminogen …; assay: FACS, cells expressing human uPAR, line material

| Binder | binding result [1] | geo mean cold - TCEP [2] | Plasminogen activation inhibition (IC50, ug/ml) [3] | binding result [4] | Kd [5] | LA at 80 ng/ml [6] | uPA/uPAR binding Inhibition % [7] | gCy5 Geo Mean Pos Cells [8] | X Geo Mean [9] | Kd [10] | koff [10] | kon [10] | Human uPAR/uPA binding inhibition (%, line material) [11] | LA at 20 ng/ml [12] | inhibition of plasminogen activation on U937 cells [13] | binding result [14] | binding result [15] | Ab to cell bound Ag (line material, FACS) [16] |
| --- | --- | --- | --- | --- | --- | --- | --- | --- | --- | --- | --- | --- | --- | --- | --- | --- | --- | --- |
| B1 | binds | 33.4 | 0.067 µg/mL | no binding (tested: 6.25 µg/ml) | 20.6 nM | 0.21 | 71% | 317 | 8.97 | 20.6 nM | 0.0013 s⁻¹ | 63000 M⁻¹ s⁻¹ | 71% | 0.06 | > 90% | no binding | no binding (tested: GeoMean ratio 1.95) |  |
| B2 | binds | 42.5 | 0.066 µg/mL | no binding (tested: 6.25 µg/ml) | 3.5 nM |  |  |  | 11.7 | 3.5 nM | 0.00042 s⁻¹ | 120000 M⁻¹ s⁻¹ | 78% |  | > 90% | no binding |  | 514 |
| B3 | binds | 46 | 0.056 µg/mL | no binding (tested: 6.25 µg/ml) | 2.7 nM | 1.03 | 77% | 412 | 9.59 | 2.7 nM | 0.00032 s⁻¹ | 120000 M⁻¹ s⁻¹ | 77% | 0.16 | > 90% | no binding | no binding (tested: GeoMean ratio 1.95) |  |
